# Measured values as given in patent publication US20130018176A1, “METHODS OF PRODUCING HYBRIDOMAS AND MONOCLONAL ANTIBODIES AND ANTIBODIES PRODUCED THEREBY” (AMGEN INC., priority 2007, published 2013).
# Read-outs that look alike come from different tables or passages of the source.
# B1: Antibody 2.7: murine human hepcidin-specific monoclonal antibody raised against KLH-conjugated hepcidin; CDRs SEQ ID NOs: 28-33 (antibody, V domains shown)
# VH: QIQLVQSGPELKKPGETVKISCKASGYTFTTYGMSWVKQAPGKGLKWMGWINTYSGVPTYADDFKGRFAFSLETSASTAYLQINNLKNEDTATYFCGRDHYYGEVAYWGQGTLVTVSA
# VL: DIVLTQSPASLAVSLGQRATISCRASESVDSYGNSFMHWYQQKPGQPPKLLIYRASNLESGIPARFSGSGSRTDFTLTINPVEADDVATYYCHQSNEEYTFGGGTKLEIK
# Experiments:
# [1] = Biological activity of hepcidin variants; details: chemically synthesized hepcidin variants
# From the text: A number of hepcidin variants were chemically synthesized according to the general procedure described in Example 4. A variant of hepcidin lacking the five amino acids at the N-terminus, designated “hepcidin 20” or “hepc20,” was synthesized. A linear hepcidin variant in which all eight cysteine residues were replaced with 2-aminobutyric acid, thus completely abolishing the ability to form disulfide bonds, was also synthesized. A C1-C8, C3-C6 hepcidin variant, in which cysteines 2, 4, 5 and 7 were substituted with 2-aminobutyric acid to allow formation of only two disulfide bonds (C1-C8 and C3-C6), was also synthesized.
# Similar results were produced using hepcidin containing its native cysteine residues, when the molecule was in a fully-reduced state (i.e., no disulfide connectivity). This reduced material was not stable, however, and regained biological activity over time.
# synthetic human hepcidin = target: T1, synthetic human hepcidin (Homo sapiens, UniProt P81172); test: Iron-responsive beta-lactamase assay in 293/Fpn/BLA cells; format: cell-based; details: 50 ng/mL synthetic human hepcidin, 2.5 ug/mL ferric citrate, read-out: EC50, decreased intracellular concentration of iron
# T1 construct: made in house; host or cells: chemical synthesis (Fmoc solid phase), oxidatively folded
# T1 sequence (P81172 60-84 limits assumed): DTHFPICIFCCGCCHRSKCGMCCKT
# Procedure: The effect of anti-human hepcidin antibodies on this hepcidin-mediated iron sequestration was evaluated in vitro. […] These 293/Fpn/BLA cells, taken from a 70-80% confluent culture, were plated at 2.8×10^5 cells/mL in DMEM (Invitrogen Cat#11965) 5% FBS (Invitrogen Cat#10099-141) PSQ (Invitrogen Cat#10378-016), 90 uL/well (25,000 cells/well) in BioCoat Poly-D Lysine coated plates (Becton-Dickinson Cat#35-6640) and incubated at 37C with 5% CO2. At the end of the same day, a solution of assay medium (DMEM 5% FBS PSQ) with 100 ug/mL doxycycline was made, 10 uL/well of it added to the plate, and the plate incubated overnight or for at least 20 hours. […] Mixtures were added at 100 uL/well and incubated overnight at 37C, 5% CO2 in a cell culture incubator. Plates were then removed from the incubator and equilibrated to room temperature for 10 minutes before adding 20 uL/well of the prepared Invitrogen GeneBlazer CCF4 A/M development reagent (Invitrogen Kit# K1085) and incubating for 90 minutes in the dark. Development reagent was also added to 16 wells of a control assay plate without cells containing 100 uL assay medium (DMEM 5% FBS PSQ) and incubated for the same time. Blue & Green fluorescence signals were then read on an Envision Multilabel Reader (Perkin-Elmer Inc.) by exciting at 409 nm and reading emissions at 447 nm (blue) and 520 nm (green).
# human hepcidin [2] = target: T2, human hepcidin (Homo sapiens, UniProt P81172); details: in vivo
# [3] = target: T3, E. coli-derived human hepcidin (Homo sapiens, UniProt P81172); test: Biacore concurrent binding to hepcidin captured on antibody 1S1 surface (sandwich pairing); details: 20 nM hepcidin on 1S1 surface, then 50 nM antibody
# T3 construct: The pro-region of the protein was enzymatically cleaved by incubation with Kex protease; made in house; host or cells: E. coli
# T3 sequence (P81172 60-84 limits assumed): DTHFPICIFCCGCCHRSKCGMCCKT
# Procedure: Using Biacore analysis, a surface coated with antibody 1S1 was tested for the concurrent binding of hepcidin and another antibody (FIG. 28). Immobilization of anti-Hepc antibody 1S1 to the sensor chip surface was performed according to manufacturer's instructions using a continuous flow of 0.005% P-20/PBS buffer. Briefly, carboxyl groups on the sensor chip surfaces were activated by injecting 60 μL of a mixture containing 0.2 M N-ethyl-N′-(dimethylaminopropyl)carbodiimide (EDC) and 0.05 M N-hydroxysuccinimide (NHS). This was followed by injecting 1S1 diluted in 10 mM acetate, pH 4.0 at concentrations between 20 μg/mL. Excess reactive groups on the surfaces were deactivated by injecting 60 μL of 1 M ethanolamine. Final immobilized levels were 5,000-6,000 resonance units (RU) for the Ab 1S1 surface. A blank, mock-coupled reference surface was also prepared on the sensor chip. 20 nM E. coli-derived human hepcidin was injected over and bound to the 1S1 antibody surface. Then 50 nM antibody 2.7, 23F11, 26F11, and 1S1 were injected over the hepcidin/1S1 surface. After the antibody injection, the surfaces were regenerated by injecting 30 μL 10 mM HCl pH 2.0.
# human hepcidin [4] = target: T2, human hepcidin; test: Combination of anti-hepcidin antibody and darbepoetin alfa in viral hepcidin over-expression model; format: in vivo; details: AAV-human hepcidin mice
# Procedure: Male C57BL/6 mice were injected with AAV (5×10^12 particles/mouse, I.V.) containing genes coding for either human hepcidin or GFP as an expression control (n=5 per group). After allowing two weeks to establish constitutive protein expression, mice were bled to determine baseline hemoglobin (Hb) levels, then treated with Ab 2.7 (1 mg/mouse) or isotype control at various dose frequencies. On the day after the first dose, they were treated with darbepoietin alfa ([…], subcutaneous). A schematic of the dosing schedule appears in FIG. 15A.
# Neutralization of hepcidin restores responsiveness to darbepoetin alfa. […] (See FIG. 15D.) Antibody dose and proximity of antibody dose to darbepoietin alfa treatment affected overall Hb response to anti-hepcidin antibody treatment, as shown in FIG. 15E (results varying from the control where p<0.01 by ANOVA with Dunnett's post-hoc test are noted with double asterisks).
# human hepcidin [5] = target: T2, human hepcidin; test: Antibody neutralization of AAV-delivered human hepcidin in mice; format: in vivo; details: 1 mg/mouse
# Procedure: AAV-mediated human hepcidin expression in mice produces a microcytic, hypochromic anemia consistent with iron deprivation. The activity of anti-human hepcidin antibodies was evaluated in vivo in these mice overexpressing human hepcidin. Male C57B1/6 mice were injected with AAV (1.5×10^12 particles/mouse, I.V.) containing expression cassettes for either human hepcidin or beta-galactosidase (β-gal) as a negative control. The mice were left for two weeks to allow constitutive production of huHepc before being treated with 1 mg/mouse of Ab 2.7 or isotype control (muIgG1) at various dosing frequencies (1×, 2× and 4× per week) as shown in FIG. 12A. Blood was drawn on the fifth day for serum iron levels and determination of early red blood cell (reticulocyte) characteristics (reticulocyte count, reticulocyte hemoglobin content (CHr), and reticulocyte mean cell volume (Retic. MCV))
# Statistical comparisons to β-gal injected animals with isotype control treatment were determined to look for restoration of normal red cell characteristics (ANOVA with Dunnett's post-hoc test).
# human hepcidin [6] = target: T4, human hepcidin (Homo sapiens, UniProt P81172); test: Neutralization of injected human hepcidin in mice (hypoferremic response); format: in vivo; details: female C57BL/6 mice; for protection from the hypoferremic response (serum iron): serum iron two hours later
# T4 construct: The pro-region of the protein was enzymatically cleaved by incubation with Kex protease; made in house; host or cells: E. coli
# T4 sequence (P81172 60-84 limits assumed): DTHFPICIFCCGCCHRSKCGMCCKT
# Procedure: Activity of anti-human hepcidin antibodies was evaluated in vivo in mice that were administered human hepcidin in an amount sufficient to generate a hypoferremic response. On day 0, female C57BL/6 mice were injected subcutaneously with a murine monoclonal antibody (Ab2.7) directed against human hepcidin. Control mice received murine IgG1 as an isotypic control. At day 3, the mice received a single intraperitoneal injection of 25 μg E. coli-derived recombinant human Hepcidin (rhHepc). Serum iron levels were analyzed two hours later. […] Statistics represent ANOVA with a Dunnett's post-hoc test comparing all groups against the saline control.
# [7] = target: T5, mature human hepcidin (SEQ ID NO: 9) (Homo sapiens, UniProt P81172); test: Epitope specificity: antibody binding to immobilized hepcidin surface after pre-complex with hepcidin variants (BIAcore); details: interpretation of Table 6
# T5 construct: made in house; host or cells: recombinant
# T5 sequence (P81172 60-84): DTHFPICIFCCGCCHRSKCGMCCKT
# Procedure: (§1) The epitope specificity of anti-human hepcidin antibodies was evaluated by assessing ability of the antibodies to bind to mature human hepcidin (SEQ ID NO: 9) after pre-complex formation with different hepcidin variants.
# (§2) Recombinant hepcidin was immobilized on a CM5 chip according to manufacturer's instructions at a flow rate 10 μL/min of running buffer (DPBS: Dulbecco's Phosphate Buffer Saline1X, GIBCO 14190, with 0.005% BIAcore surfactant P-20). The carboxylated matrix of the sensor chip was first activated with a 100 μL injection of 1:1 mixture of EDC (75 mg/mL N-ethyl-N-(dimethylamine-propyl)carbodiimide in water, from Biacore) and NHS (11.5 mg/mL N-hydroxysuccinimide in water, from Biacore). 180 μL of rhHepc (˜20 μg/ml in 10 mM Na-acetate pH4.0) was injected to immobilize onto the sensor chip at 30 μL/min. The excess reactive groups of the sensor chip were deactivated with an injection of 100 μL of ethanolamine (1.0M, from Biacore).
# (§3) Forms of hepcidin used for the pre-complex were: correctly folded hepcidin as a positive control, the C1-C8, C3-C6 hepcidin variant (see Example 9), hepcidin 20 (N-terminally truncated, see Example 9) and linear hepcidin (Example 9). 1 nM solutions of antibody (2.41, 2.7, 43, and R9) were preincubated with 10 nM of each antigen at room temperature for several hours before run through the immobilized hepcidin surface. The binding signal obtained was proportional to the concentration of free antibody in solution at equilibrium.
# (§4) Some antibodies require the five amino acids at the N-terminus of the molecule (e.g. Ab43 and to a lesser extent, R9).
# [8] = system: mature human hepcidin (SEQ ID NO: 9); test: as above; details: interpretation of Table 6
# Procedure: as §1, §2, §3, §4
molecule,measurement,setting,value
hepc20: variant of hepcidin lacking the five amino acids at the N-terminus (SEQ ID NO: 96) (ICIFCCGCCHRSKCGMCCKT),biological activity,[1],severely diminished biological activity
B1,EC50,synthetic human hepcidin,17 nM
same,response to darbepoietin alfa (Hb levels),human hepcidin [2],did not respond
same,responsiveness to darbepoietin alfa (hemoglobin levels),human hepcidin [2],restored responsiveness
same,ability to bind hepcidin concurrently with 1S1 (sandwich pair),[3],not able to form a sandwich pair with 1S1
same,response to darbepoietin alfa (increase in Hb levels),human hepcidin [4]; antibody 1 mg/mouse Monday-Wednesday-Friday dosing plus darbepoietin alfa,partial response
same,response to darbepoietin alfa (Hb levels),human hepcidin [4]; antibody 1 mg/mouse daily (Monday through Friday) plus darbepoietin alfa,maximal response
same,Hb levels,human hepcidin [4]; antibody Monday-Wednesday-Friday dosing without darbepoietin alfa,no rise in Hb levels
same,response to darbepoietin alfa (Hb levels),human hepcidin [4]; two and three doses of antibody plus darbepoietin alfa,partial response
same,Serum iron levels,"human hepcidin [5]; AAV-human hepcidin male C57B1/6 mice, 4× per week",restored to normal
same,reticulocyte mean cell volume (Retic. MCV),"human hepcidin [5]; AAV-human hepcidin mice, 1× dose",microcytosis is still present
same,reticulocyte hemoglobin content (CHr),"human hepcidin [5]; AAV-human hepcidin mice, 1× dosing",hypochromicity is still seen
same,reticulocyte mean cell volume (Retic. MCV),"human hepcidin [5]; AAV-human hepcidin mice, 2× dose",restores normal volume
same,reticulocyte hemoglobin content (CHr),"human hepcidin [5]; AAV-human hepcidin mice, 2× dosing",normal
same,reticulocyte mean cell volume (Retic. MCV),"human hepcidin [5]; AAV-human hepcidin mice, 4× dose",restores normal volume
same,reticulocyte hemoglobin content (CHr),"human hepcidin [5]; AAV-human hepcidin mice, 4× dosing",normal
same,reticulocyte production (reticulocyte count),"human hepcidin [5]; AAV-human hepcidin mice, all dosing frequencies (1×, 2×, 4× per week)",increased reticulocyte production
same,hypoferremia (serum iron),"human hepcidin [6]; 0.25 mg antibody s.c. day 0, 25 μg rhHepc i.p. day 3",reduction in hypoferremia
same,protection from the hypoferremic response (serum iron),"human hepcidin [6]; 0.5 mg antibody s.c. day 0, 25 μg rhHepc i.p. day 3",statistically significant protection from the hypoferremic response
same,protection from the hypoferremic response (serum iron),"human hepcidin [6]; 1 mg antibody s.c. day 0, 25 μg rhHepc i.p. day 3",statistically significant protection from the hypoferremic response
same,neutralization of hypoferremic response,human hepcidin [6]; lower doses (0.25 and 0.1 mg) of antibody,non-neutralizing doses
same,"Binding to Solution Epitopes, Folded Hepcidin",[7],++++ (0% antibody binding to the hepcidin surface and therefore 100% inhibition by hepcidin in solution)
same,"Binding to Solution Epitopes, C1-C8 C3-C6",[8],++++ (0% antibody binding to the hepcidin surface and therefore 100% inhibition by hepcidin in solution)
same,"Binding to Solution Epitopes, Linear Hepcidin",[8],− (100% antibody binding to the hepcidin surface and therefore no inhibition by hepcidin in solution)
